# Like-named read-outs stand apart in the source and are kept apart here.
# Test: In vivo biodistribution by organ and tissue extraction
# Set-up: species or system male Wistar rats
# Conditions: male, Wistar, total radioactivity, rat, mean ± SD; for tissue uptake dose at 48 h / SUV at 48 h: 2880 min p.i.; for tissue uptake dose at 5 min / SUV at 5 min: 5 min p.i.; for tissue uptake dose at 1 h / SUV at 1 h: 60 min p.i.; for tissue uptake dose at 4 h / SUV at 4 h: 240 min p.i.; for tissue uptake dose at 24 h / SUV at 24 h: 1440 min p.i.
# Description: The present study includes data obtained from a total of 50 animals. Four animals (body weight 227 ± 10 g) for each time point were injected intravenously into a tail vein or subcutaneously with approximately 0.3 MBq ([…]) [^64Cu]Cu-NOTA-HsTX1[R14A] conjugate in 0.5 mL electrolyte solution E-153 (Serumwerk Bernburg, Germany). Animals were euthanised at 5, 60, 240, 1440 and 2880 min post-injection. Blood and the major organs were collected, weighed, and counted in a cross-calibrated γ-counter (Isomed 1000, Isomed GmbH, Dresden) and Wallac WIZARD Automatic Gamma Counter (PerkinElmer, Germany). The radioactivity of the tissue samples was decay-corrected and calibrated by comparing the counts in tissue with the counts in aliquots of the injected radiotracer that had been measured in the γ-counter at the same time. The activity in the selected organs was expressed as percent-injected dose per organ (% ID) and the activity concentration in tissues and organs as standardised uptake value (SUV). Values are quoted as mean ± standard error of mean (SEM) for each group of four animals.
# [1] = lung, iv, 0.3 MBq, i.v., n=4, read-out: Lung activity amount
# [2] = lung, iv, 0.3 MBq, i.v., n=8, read-out: Lung activity amount
# [3] = lung, iv, i.v., n=4, read-out: Lung SUV
# [4] = lung, iv, i.v., n=8, read-out: Lung SUV
# [5] = lung, sc, 0.3 MBq, s.c., n=4, read-out: Lung activity amount
# [6] = lung, sc, s.c., n=4, read-out: Lung SUV
# [7] = muscle, iv, i.v., n=4, read-out: Muscle SUV
# [8] = muscle, iv, i.v., n=8, read-out: Muscle SUV
# [9] = muscle, sc, s.c., n=4, read-out: Muscle SUV
# [10] = pancreas, iv, 0.3 MBq, i.v., n=4, read-out: Pancreas SUV
# [11] = pancreas, iv, 0.3 MBq, i.v., n=4, read-out: Pancreas activity amount
# [12] = pancreas, iv, 0.3 MBq, i.v., n=8, read-out: Pancreas SUV
# [13] = pancreas, iv, 0.3 MBq, i.v., n=8, read-out: Pancreas activity amount
# [14] = pancreas, sc, 0.3 MBq, s.c., n=4, read-out: Pancreas SUV
# [15] = pancreas, sc, 0.3 MBq, s.c., n=4, read-out: Pancreas activity amount
# [16] = spleen, iv, 0.3 MBq, i.v., n=4, read-out: Spleen SUV
# [17] = spleen, iv, 0.3 MBq, i.v., n=4, read-out: Spleen activity amount
# [18] = spleen, iv, 0.3 MBq, i.v., n=8, read-out: Spleen SUV
# [19] = spleen, iv, 0.3 MBq, i.v., n=8, read-out: Spleen activity amount
# [20] = spleen, sc, 0.3 MBq, s.c., n=4, read-out: Spleen SUV
# [21] = spleen, sc, 0.3 MBq, s.c., n=4, read-out: Spleen activity amount
# [22] = stomach, iv, 0.3 MBq, i.v., n=4, read-out: Stomach activity amount
# [23] = stomach, iv, 0.3 MBq, i.v., n=8, read-out: Stomach activity amount
# [24] = stomach, sc, 0.3 MBq, s.c., n=4, read-out: Stomach activity amount
# [25] = testes, iv, 0.3 MBq, i.v., n=4, read-out: Testes SUV
structure (smiles),measurement,setting,value
"CSCC[C@@H]1NC(=O)[C@@H]2CSSC[C@H](NC(=O)[C@H](CO)NC(=O)[C@H](C)NC(=O)COCCOCCNC(=O)CN3CCN(CC(=O)O)CCN(CC(=O)O)CC3)C(=O)N[C@@H](CCCNC(=N)N)C(=O)N[C@@H]([C@@H](C)O)C(=O)N3CCC[C@H]3C(=O)N[C@@H](CCCCN)C(=O)N[C@@H](CC(=O)O)C(=O)N[C@H]3CSSC[C@H](NC(=O)[C@H](CCCCN)NC(=O)[C@H](CCCNC(=N)N)NC(=O)[C@H](CC(N)=O)NC1=O)C(=O)N[C@@H](CCCCN)C(=O)N[C@H]1CSSC[C@H](NC(=O)[C@@H]4CCCN4C(=O)[C@H](CC(=O)O)NC(=O)[C@H](C)NC3=O)C(=O)N[C@@H](C)C(=O)N[C@@H](CCCCN)C(=O)N[C@@H](CCC(=O)O)C(=O)N[C@@H]([C@@H](C)O)C(=O)NCC(=O)N[C@@H](CSSC[C@@H](C(N)=O)NC(=O)[C@H](CCCNC(=N)N)NC(=O)[C@H](CC(N)=O)NC1=O)C(=O)N1CCC[C@H]1C(=O)N[C@@H](Cc1ccc(O)cc1)C(=O)NCC(=O)N[C@@H](CCCCN)C(=O)N2 [[^64Cu]Cu-NOTA-HsTX1[R14A], metal not drawn]",tissue uptake dose at 48 h,"liver, sc, 0.3 MBq, s.c., n=4, read-out: Liver activity amount",7.85 ± 0.49 %ID
same,tissue uptake dose at 5 min,[1],1.44 ± 0.18 %ID
same,tissue uptake dose at 1 h,[2],1.24 ± 0.3 %ID
same,tissue uptake dose at 4 h,[1],0.92 ± 0.12 %ID
same,tissue uptake dose at 24 h,[2],0.5 ± 0.05 %ID
same,tissue uptake dose at 48 h,[1],0.46 ± 0.06 %ID
same,SUV at 5 min,[3],2.87 ± 0.32 SUV
same,SUV at 1 h,[4],1.98 ± 0.17 SUV
same,SUV at 4 h,[3],1.24 ± 0.1 SUV
same,SUV at 24 h,[4],0.78 ± 0.13 SUV
same,SUV at 48 h,[3],0.55 ± 0.03 SUV
same,tissue uptake dose at 1 h,[5],1.64 ± 0.24 %ID
same,tissue uptake dose at 4 h,[5],1.04 ± 0.08 %ID
same,tissue uptake dose at 24 h,[5],0.49 ± 0.02 %ID
same,tissue uptake dose at 48 h,[5],0.33 ± 0.01 %ID
same,SUV at 1 h,[6],2.1 ± 0.33 SUV
same,SUV at 4 h,[6],1.32 ± 0.12 SUV
same,SUV at 24 h,[6],0.63 ± 0.02 SUV
same,SUV at 48 h,[6],0.47 ± 0.01 SUV
same,SUV at 5 min,[7],0.43 ± 0.03 SUV
same,SUV at 1 h,[8],0.17 ± 0.06 SUV
same,SUV at 4 h,[7],0.07 SUV
same,SUV at 24 h,[8],0.18 ± 0.02 SUV
same,SUV at 48 h,[7],0.19 ± 0.01 SUV
same,SUV at 1 h,[9],0.15 ± 0.02 SUV
same,SUV at 4 h,[9],0.08 ± 0.01 SUV
same,SUV at 24 h,[9],0.19 ± 0.01 SUV
same,SUV at 48 h,[9],0.16 SUV
same,SUV at 5 min,[10],0.64 ± 0.09 SUV
same,tissue uptake dose at 5 min,[11],0.11 ± 0.03 %ID
same,SUV at 1 h,[12],0.3 ± 0.04 SUV
same,tissue uptake dose at 1 h,[13],0.06 ± 0.02 %ID
same,SUV at 4 h,[10],0.24 ± 0.01 SUV
same,tissue uptake dose at 4 h,[11],0.08 %ID
same,SUV at 24 h,[12],0.62 ± 0.16 SUV
same,tissue uptake dose at 24 h,[13],0.2 ± 0.16 %ID
same,SUV at 48 h,[10],0.32 ± 0.01 SUV
same,tissue uptake dose at 48 h,[11],0.08 ± 0.01 %ID
same,SUV at 1 h,[14],0.29 ± 0.03 SUV
same,tissue uptake dose at 1 h,[15],0.11 ± 0.03 %ID
same,SUV at 4 h,[14],0.25 SUV
same,tissue uptake dose at 4 h,[15],0.08 ± 0.01 %ID
same,SUV at 24 h,[14],0.48 ± 0.02 SUV
same,tissue uptake dose at 24 h,[15],0.15 ± 0.01 %ID
same,SUV at 48 h,[14],0.28 ± 0.02 SUV
same,tissue uptake dose at 48 h,[15],0.07 ± 0.01 %ID
same,SUV at 5 min,[16],4.06 ± 0.6 SUV
same,tissue uptake dose at 5 min,[17],0.83 ± 0.12 %ID
same,SUV at 1 h,[18],3.42 ± 0.42 SUV
same,tissue uptake dose at 1 h,[19],0.79 ± 0.11 %ID
same,SUV at 4 h,[16],2.4 ± 0.1 SUV
same,tissue uptake dose at 4 h,[17],0.67 ± 0.06 %ID
same,SUV at 24 h,[18],0.83 ± 0.26 SUV
same,tissue uptake dose at 24 h,[19],0.18 ± 0.04 %ID
same,SUV at 48 h,[16],0.56 ± 0.05 SUV
same,tissue uptake dose at 48 h,[17],0.16 ± 0.01 %ID
same,SUV at 1 h,[20],4 ± 0.21 SUV
same,tissue uptake dose at 1 h,[21],1.08 ± 0.03 %ID
same,SUV at 4 h,[20],2.84 ± 0.25 SUV
same,tissue uptake dose at 4 h,[21],0.75 ± 0.03 %ID
same,SUV at 24 h,[20],0.59 ± 0.03 SUV
same,tissue uptake dose at 24 h,[21],0.15 %ID
same,SUV at 48 h,[20],0.47 ± 0.04 SUV
same,tissue uptake dose at 48 h,[21],0.15 ± 0.01 %ID
same,tissue uptake dose at 5 min,[22],0.67 ± 0.09 %ID
same,tissue uptake dose at 1 h,[23],1.28 ± 1.2 %ID
same,tissue uptake dose at 4 h,[22],1.52 ± 1.06 %ID
same,tissue uptake dose at 24 h,[23],1.56 ± 1.04 %ID
same,tissue uptake dose at 48 h,[22],1.46 ± 0.37 %ID
same,tissue uptake dose at 1 h,[24],1.14 ± 0.45 %ID
same,tissue uptake dose at 4 h,[24],0.6 ± 0.03 %ID
same,tissue uptake dose at 24 h,[24],0.82 ± 0.07 %ID
same,tissue uptake dose at 48 h,[24],1.72 ± 1.02 %ID
same,SUV at 5 min,[25],0.24 ± 0.03 SUV
same,tissue uptake dose at 5 min,"testes, iv, 0.3 MBq, i.v., n=4, read-out: Testes activity amount",0.27 ± 0.05 %ID
same,SUV at 1 h,"testes, iv, 0.3 MBq, i.v., n=8, read-out: Testes SUV",0.16 ± 0.01 SUV
same,tissue uptake dose at 1 h,"testes, iv, 0.3 MBq, i.v., n=8, read-out: Testes activity amount",0.23 ± 0.02 %ID
same,SUV at 4 h,[25],0.13 ± 0.01 SUV

# Source: paper PMC5473807, “Distribution and kinetics of the Kv1.3-blocking peptide HsTX1[R14A] in experimental rats” (Scientific Reports, 2017)
